2 molecules from patent US20190352422A1 (PCM TARGETECH, published 2019) can be followed below.

Experiment [1] deals with T1, human RON receptor (human, UniProt Q04912 25-1400). Kind of experiment: cell-based or functional assay.
The target in experiment [2] is T1, human RON receptor. Briefly: flow cytometry on HT29 cells, FITC-coupled anti-human IgG1 secondary. Here is the method: Colon cancer HT29 cell line expressing ˜19,000 RON molecules per cell were used as the model. Mouse PCM5B14 was used as the positive control. Individual H5B14 clones at different concentrations were incubated with cells followed by addition of FITC-coupled anti-human IgG1 antibody. Fluorescence intensities from individual samples were analyzed using the BD flow cytometer. Results in FIG. 2 are the dose-dependent specific binding of individual H5B14s. […] Results in Table 1 show the individual values reflecting the binding affinity and sensitivity of individual H5B14 clones to human RON receptor.

B1: Humanized PCM5B14 H2L4 (IgG1/κ, designated as H5B14) (antibody, V domains shown)
VH: QVQLVQSGAEVKKPGATVKISCKVSGYTFTDYHMDWVQQAPGKGLEWMGDINPNNGGAIYNQKFKGRVTITADTSTDTAYMELSSLRSEDTAVYYCARSHYDYAGGAWFAYWGQGTLVTVSR
VL: EIVMTQSPGTLSLSPGERATLSCKSSQSLLFSGNQKNYLAWYQQKPGQAPRLLIYWASTRASGIPDRFSGSGSGTDFTLTISRLEPEDFAVYYCQQYYSFPRTFGQGTKLEIKR
notes: also called H5B14H2L4; Humanized 5B14
On to B1, for which, in the experiment with human RON receptor [1], the “Internalization efficacy of cell surface RON (EC50, hours), Breast T-47D” value is 8.26 h; the “Internalization efficacy of cell surface RON (EC50, hours), Colon HT-29” value stood at 5.33 h; the “Internalization efficacy of cell surface RON (EC50, hours), Lung H358” value was 7.94 h; the “Internalization efficacy of cell surface RON (EC50, hours), Pancreatic L3.6p1” value came to 8.17 h. Moreover, in the experiment with human RON receptor [2], a half-maximal response (EC50) required 2.22 µg/mL and the LogEC50 is 0.346 log(µg/ml).

B2: Mouse Zt/g4 (antibody, from another filing, V domains shown)
VH: EVQLQQSGAELVKPGASVKLSCTTSGFNIIDTYIHWVNQKPDQGLEWIGRIDPADGNRKSDPKFQVKATITVDTSSNTAYLQLSSLTSGDTAVYYCARGYGNLNAMDSWGQGTSVTVSS
VL: DIQMNQSPSSLSASLGDTITITCHASQNINVWLNWYQQKPGNIPKLLIYKASNLHTGVPSRFSGSGSGTGFTLTISSLQPEDIATYYCQQGQSYPLTFGGGTKLEIK
For B2, in the experiment with human RON receptor [1], the Internalization efficacy of cell surface RON (EC50, hours), Breast T-47D was 23.5 h; the Internalization efficacy of cell surface RON (EC50, hours), Colon HT-29 turned out to be 11 h; the Internalization efficacy of cell surface RON (EC50, hours), Lung H358 turned out to be 7.47 h; the Internalization efficacy of cell surface RON (EC50, hours), Pancreatic L3.6p1 amounted to 14.1 h.
